Experimental data reported in patent publication US20050222009A1, “Dual phase - PNA conjugates for the delivery of PNA through the blood brain barrier” (priority 2003, published 2005).

System: PC12 cells
Test: Measurement of cellular toxicity by neutral red uptake
Assay type: cell-based, rat
Details: 48 hours incubation (FIG. 2); compared with control PNA
Experimental: As an in vitro models for neurons and for BBB we used the human neuroblastoma NMB cell line the rat catecholaminergic cell line PC12 and the mice brain-derived endothelial cell line bEND. NMB cells were adapted to grow in Dulbecco modified Eagle medium (DMEM) with 10% Hyclone calf serum (Simantov et al., 1996). PC12 cells were grown in DMEM, 10% horse serum and 5% calf serum. bEND3 cells were grown in DMEM, %10 calf serum supplemented with 2 mM glutamine. Cells were maintained in a 10% CO2 humidified incubator at 37° C. Cells were routinely sub-cultured every four to five days. When cells (5×10^3) were plated in 96 wells, dishes were pretreated with poly-L-ornithine.
PC12 cells were incubated with PNA or peptide-PNA conjugates for 48 hours. At the end of the incubation, cell morphology was examined by light microscopy. Medium was replaced with medium containing neutral red. Neutral-red uptake was determined by spectrophotometer and was used as an index for cellular toxicity (FIG. 2).

Substance	neutral red uptake to PC12 cells (index for cellular toxicity)
CHK6HC-TTT GCT CTT ACT CAT-HAIYPRH [KBP11]	no significant difference
CHK6HC-TTT GCT CTT ACT CAT-THRPPMWSPVWP [KBP10]	no significant difference
